The results in this text go back to paper PMC9114370, “Heat shock protein Grp78/BiP/HspA5 binds directly to TDP-43 and mitigates toxicity associated with disease pathology” (Scientific Reports, 2022).

What all share (details): both partners purified
In test [1] the target is T1, HspA5 substrate binding domain (SBD) (human, UniProt P11021 420-654).
T1 construct: SBD approximately 200 amino acids long; vector pSpeedET; also called HspA5-SBD; Grp78; source: E. coli BL21-Codon plus, purified (cobalt IMAC, TEV cleavage)
T1 sequence (P11021 420-654): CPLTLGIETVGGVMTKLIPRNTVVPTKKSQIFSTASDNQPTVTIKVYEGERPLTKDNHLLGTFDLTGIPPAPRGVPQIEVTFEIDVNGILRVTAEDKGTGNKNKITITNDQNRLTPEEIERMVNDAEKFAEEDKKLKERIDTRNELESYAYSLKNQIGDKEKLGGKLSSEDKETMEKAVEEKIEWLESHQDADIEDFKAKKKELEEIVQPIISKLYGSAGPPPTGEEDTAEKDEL
The experiment in a line: MST; 50 nM labelled TDP-43 construct (RED-NTA labelling), ranging concentrations of Hsp70 SBD titrated, MST buffer, premium capillaries, 40% LED, medium MST power; no RNA.

The target of test [2] is T2, HspA1A substrate binding domain (SBD) (human, UniProt P0DMV8 395-641).
T2 construct: SBD approximately 200 amino acids long; vector pSpeedET; also called Hsp70 SBD; source: E. coli BL21-Codon plus, purified (cobalt IMAC, TEV cleavage)
T2 sequence (P0DMV8 395-641): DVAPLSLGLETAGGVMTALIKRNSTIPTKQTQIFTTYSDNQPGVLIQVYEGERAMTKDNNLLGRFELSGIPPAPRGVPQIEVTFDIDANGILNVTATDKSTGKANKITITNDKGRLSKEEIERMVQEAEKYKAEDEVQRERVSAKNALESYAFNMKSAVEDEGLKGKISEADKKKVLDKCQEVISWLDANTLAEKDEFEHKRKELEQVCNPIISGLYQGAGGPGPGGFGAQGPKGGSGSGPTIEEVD
The test is described as above.

Test [3] concerns the target T1, HspA5 substrate binding domain (SBD). The experiment in a line: MST; NTA-labelled TDP-43(102-269), HspA5 titrated, in the presence of UG6 RNA (increasing concentrations; concentration not given).

Where “and” joins values, the source holds several entries; their conditions need not be identical. Equal entries are not always repeated.

B1: TDP43_(102-269)-His (domain or fragment, human, UniProt Q13148 102-269, looked up)
chain: KTSDLIVLGLPWKTTEQDLKEYFSTFGEVLMVQVKKDLKTGHSKGFGFVRFTEYETQVKVMSQRHMIDGRWCDCKLPNSKQSQDEPLRSRKVFVGRCTEDMTEDELREFFSQYGDVMDVFIPKPFRAFAFVTFADDQIAQSLCGEDLIIKGISVHISNAEPKHNSNRQ
modifications: labelled with Monolith Protein Labeling Kit RED-NTA
notes: also called RRM domain; RRM domains of TDP-43; source: recombinantly expressed, purified
On to B1, for which the equilibrium dissociation constant (Kd) in test [1] is 0.298 µM and 0.89 µM; in test [2], 2.35 µM; in test [3], 28.3 µM.

The term Kd denotes the equilibrium constant for the complex coming apart.
